Legend:
D16G TCL1 = D16G TCL1 (UniProt P56279)
[1] = system: T1, peptide having repetitive sequence of 11-23 from 10-24 (NH2-VTDHPDRLWAWEK-RRR-VTDHPDRLWAWEK-COOH)
T1 sequence: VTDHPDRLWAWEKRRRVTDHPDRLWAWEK

[2] = system: T2, 10/24 peptide (amino acid residue 10-24 of human TCL1, NH2-AVTDHPDRLWAWEKF-COOH)
T2 sequence: AVTDHPDRLWAWEKF

Chain of D16G TCL1 (P56279 whole entry D16G): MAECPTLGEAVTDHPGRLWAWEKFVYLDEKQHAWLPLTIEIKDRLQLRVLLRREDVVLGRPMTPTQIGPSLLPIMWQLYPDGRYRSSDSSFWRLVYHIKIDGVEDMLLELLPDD

Substance	Akt kinase activity in an in vitro kinase assay (GSK-3a phosphorylation, Akt Ser-473 phosphorylation) (D16G TCL1)	In vitro Akt kinase assay, GSK phosphorylation [1]	In vitro Akt kinase assay, GSK phosphorylation by western blotting, peptide at 200 µM [2]
Akt (in vitro kinase assay of Example 1)	D16G TCL1 did not affect the Akt kinase activity even though in a dose escalation experiment		
Recombinant Akt protein extracted from mammalian cells		The similar inhibition effect on Akt kinase activity was also identified	the 10/24 peptide was effectively inhibited the phosphorylation potency for GSK peptide of Akt
